Measurements as given in IntAct's records for PubMed 20676127.

B1: Inhibitor of growth protein 2 (Homo sapiens), Q9H160 (parent)
chain: MLGQQQQQLYSSAALLTGERSRLLTCYVQDYLECVESLPHDMQRNVSVLRELDNKYQETLKEIDDVYEKYKKEDDLNQKKRLQQLLQRALINSQELGDEKIQIVTQMLELVENRARQMELHSQCFQDPAESERASDKAKMDSSQPERSSRRPRRQRTSESRDLCHMANGIEDCDDQPPKEKKSKSAKKKKRSKAKQEREASPVEFAIDPNEPTYCLCNQVSYGEMIGCDNEQCPIEWFHFSCVSLTYKPKGKWYCPKCRGDNEKTMDKSTEKTKKDRRSR
partner: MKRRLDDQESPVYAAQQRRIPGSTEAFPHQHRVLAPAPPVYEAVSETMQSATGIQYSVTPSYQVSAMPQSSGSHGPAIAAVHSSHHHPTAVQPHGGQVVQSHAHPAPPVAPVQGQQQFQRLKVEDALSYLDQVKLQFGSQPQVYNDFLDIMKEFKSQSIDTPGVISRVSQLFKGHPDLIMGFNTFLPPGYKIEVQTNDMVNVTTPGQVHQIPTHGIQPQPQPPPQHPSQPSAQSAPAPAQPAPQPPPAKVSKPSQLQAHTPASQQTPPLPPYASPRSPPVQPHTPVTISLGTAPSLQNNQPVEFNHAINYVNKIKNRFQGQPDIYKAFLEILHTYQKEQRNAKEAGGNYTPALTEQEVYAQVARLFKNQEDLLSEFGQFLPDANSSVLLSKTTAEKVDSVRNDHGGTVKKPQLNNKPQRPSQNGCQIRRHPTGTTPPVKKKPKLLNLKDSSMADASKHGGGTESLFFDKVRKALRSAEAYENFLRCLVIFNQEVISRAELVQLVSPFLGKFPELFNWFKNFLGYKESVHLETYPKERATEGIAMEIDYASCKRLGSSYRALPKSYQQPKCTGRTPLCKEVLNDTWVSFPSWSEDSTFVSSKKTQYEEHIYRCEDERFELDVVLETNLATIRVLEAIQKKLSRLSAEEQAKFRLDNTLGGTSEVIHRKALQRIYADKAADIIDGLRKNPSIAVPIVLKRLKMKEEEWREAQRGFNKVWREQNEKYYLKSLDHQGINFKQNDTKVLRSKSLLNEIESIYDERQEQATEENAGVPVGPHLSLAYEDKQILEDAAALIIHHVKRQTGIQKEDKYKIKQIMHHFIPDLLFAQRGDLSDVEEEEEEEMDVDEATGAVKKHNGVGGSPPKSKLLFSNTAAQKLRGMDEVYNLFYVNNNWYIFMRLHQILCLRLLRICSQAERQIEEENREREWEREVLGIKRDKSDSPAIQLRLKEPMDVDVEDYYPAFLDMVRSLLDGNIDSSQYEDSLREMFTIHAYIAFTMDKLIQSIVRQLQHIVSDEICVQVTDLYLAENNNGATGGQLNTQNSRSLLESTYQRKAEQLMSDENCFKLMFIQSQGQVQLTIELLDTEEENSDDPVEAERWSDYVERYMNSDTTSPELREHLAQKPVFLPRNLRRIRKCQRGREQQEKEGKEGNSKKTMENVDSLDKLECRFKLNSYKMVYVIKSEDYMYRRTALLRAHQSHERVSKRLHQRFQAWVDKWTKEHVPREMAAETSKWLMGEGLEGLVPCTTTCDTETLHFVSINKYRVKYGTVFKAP

Variants of: B1
Conditions: with sin3a_human SIN3A

| Variant | effect of a mutation on the interaction |
| --- | --- |
| MLGQQQQQLYSSAALLTGERSRLLTCYVQDYLECVESLPHDMQRNVSVLRELDNKYQETLKEIDDVYEKYKKEDDLNQKKRLQQLLQRALINSQELGDEKIQIVTQMLELVENRARQMELHSQCFQDPAESERASDKAKMDSSQPERSSRRPRRQRTSESRDLCHMANGIEDCDDQPPKEKKSKSAKKKKRSKAKQAREASPVEFAIDPNEPTYCLCNQVSYGEMIGCDNEQCPIEWFHFSCVSLTYKPKGKWYCPKCRGDNEKTMDKSTEKTKKDRRSR [E197A] | decreasing interaction |
| MLGQQQQQLYSSAALLTGERSRLLTCYVQDYLECVESLPHDMQRNVSVLRELDNKYQETLKEIDDVYEKYKKEDDLNQKKRLQQLLQRALINSQELGDEKIQIVTQMLELVENRARQMELHSQCFQDPAESERASDKAKMDSSQPERSSRRPRRQRTSESRDLCHMANGIEDCDDQPPKEKKSKSAKKKKRSKARQEREASPVEFAIDPNEPTYCLCNQVSYGEMIGCDNEQCPIEWFHFSCVSLTYKPKGKWYCPKCRGDNEKTMDKSTEKTKKDRRSR [K195R] | decreasing interaction |
